{"source": "patent US20150031620", "key": {"[1]": {"system": "mutant rTMD23NA (thrombomodulin domains 2 and 3 with N364A and N391A)", "sequence (chain, as listed by the source N364A N391A)": "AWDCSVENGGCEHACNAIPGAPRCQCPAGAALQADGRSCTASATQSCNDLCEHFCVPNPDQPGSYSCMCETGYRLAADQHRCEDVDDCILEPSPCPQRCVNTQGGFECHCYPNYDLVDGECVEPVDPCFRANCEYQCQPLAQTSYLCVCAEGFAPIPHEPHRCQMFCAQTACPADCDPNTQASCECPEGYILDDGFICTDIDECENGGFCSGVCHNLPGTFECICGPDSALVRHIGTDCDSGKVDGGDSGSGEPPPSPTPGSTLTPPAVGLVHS"}, "[2]": {"system": "recombinant human TMD23 (wild-type thrombomodulin domains 2 and 3)", "sequence (chain, as listed by the source)": "as the sequence (chain, as listed by the source N364A N391A) above, with A141N, A168N counted along it"}}, "data": [{"substance": "thrombin", "values": [{"measurement": "thrombin-dependent activation of protein C (hydrolysis of Chromozym PCa, absorbance at 405 nm)", "setting": "[1]", "value": "The mutant rTMD23NA lost its cofactor activity in catalyzing thrombin-dependent activation of Protein C"}, {"measurement": "thrombin-dependent activation of protein C (hydrolysis of Chromozym PCa, absorbance at 405 nm)", "setting": "[2]", "value": "only recombinant TMD23 gave rise to thrombin-dependent protein C activation"}]}]}
